# Measured values from US20230097381A1, “COMPOSITION, KIT AND METHOD FOR DIAGNOSIS AND TREATMENT OF PROSTATE CANCER” (RADIOMEDIX, INC., priority 2020, published 2023).
# Experiments:
# LNCap xenografts [1] = assay: in vivo; parameters: species or system athymic nude mice; settings: mouse
# Experimental: (§1) Athymic strains of mice bearing LNCap xenografts were injected via the tail vein with 15 μCi of ^212Pb-DOTAM-PSMA reconstituted in 150-200 μL of saline. At 1 h, 3 h, post injection, while under anesthesia blood was collected by cardiac puncture and mice were sacrificed by cervical dislocation. The heart, lung liver, stomach, pancreas, spleen fat, kidney, muscle, intestines, skin and tumor were collected. Each organ was weighed, and the tissue radioactivity was measured with an automated gamma counter (2470 Wizard2 Gamma Counter, Perkin-Elmer, Waltham, Mass.). The percentage of injected dose per gram of tissue (% ID/g) was calculated. AH measurements were corrected for decay.
# in vivo [2] = assay: in vivo; parameters: species or system athymic nude mice; settings: athymic nude, mouse, iv, 15 uCi, total radioactivity
# Experimental: as §1
# LNCap xenografts [3] = assay: in vivo; parameters: species or system athymic nude mice; settings: mouse; remark: listed apart in the source
# Experimental: as §1, with “with 40” for “with 15”, “of ^203Pb-DOTAM-PSMA” for “of ^212Pb-DOTAM-PSMA”, “in 200-250” for “in 150-200”, “1 h and” for “1 h,”, “3 h” for “3 h,”, “calculated. All” for “calculated. AH”
# in vivo [4] = assay: in vivo; parameters: species or system athymic nude mice; settings: athymic nude, mouse, iv, 40 uCi, total radioactivity
# Experimental: as §1, with “with 40” for “with 15”, “of ^203Pb-DOTAM-PSMA” for “of ^212Pb-DOTAM-PSMA”, “in 200-250” for “in 150-200”, “1 h and” for “1 h,”, “3 h” for “3 h,”, “calculated. All” for “calculated. AH”
# [5] = system: LNCap and 22Rv1 xenografts; parameters: species or system R2G2 strain of mice; settings: mouse, in vivo
# Experimental: […] strains of mice bearing LNCap and 22Rv1 xenografts were injected via the tail vein with 50-100 μCi of ^64Cu-DOTAM-PSMA reconstituted in 150-200 μL of saline. At 1 h, 2 h, and 24 hrs. post injection, while under anesthesia blood was collected by cardiac puncture and mice were sacrificed by cervical dislocation. The heart, lung liver, stomach, pancreas, spleen fat, kidney, muscle, intestines, skin and tumor were collected. Each organ was weighed, and the tissue radioactivity was measured with an automated gamma counter (2470 Wizard2 Gamma Counter, Perkin-Elmer, Waltham, Mass.). The percentage of injected dose per gram of tissue (% ID/g) was calculated. All measurements were corrected for decay.
# [6] = system: PSMA-overexpressing LNCap and 22Rv1-derived xenografts; parameters: species or system Athymic Nude Mice; settings: mouse, in vivo
# Experimental: About 5×10^6 LNCap and 22Rv1 cells suspended in 100 μL of RPMI 1640 with 50% Matrigel (Corning, Corning, N.Y.) were subcutaneously injected into upper flank of 6-7-week-old mice. Xenografts were generated in Athymic Nude Mice (Envigo, Indianapolis, Ind. and Taconic, Rensselaer, N.Y.). When xenograft tumor reached the size of 0.25 cm^3 in diameter, all mice were randomly divided in groups for PET imaging and biodistribution studies.
# PET/X-Ray imaging studies were performed using GENISYS^4 scanner (Sofie Bioscience, Curlver City, Calif.). Mice were anesthetized using with isoflurane (2% in 98% oxygen) and their temperature was kept at 38° C. with a heating lamp during injection of the agent and image acquisition All images were corrected for photon attenuation, but scatter correction was not applied. Maximum-Likehood Expectation Maximization was used to create final images volumes. Static PET scans were acquired approximately at 1 h, 2 h, 4 h after intravenous injection of ^64Cu-DOTAM-PSMA in 200 μL volume. The image acquisition time was 10 minutes. VivoQuant software (Invicro, Boston, Mass.) was used to determine the ROI (Sum) for tumor, liver, kidney, muscle and salivary gland which were equivalent to % ID/g uptake of agent at various time points.
# in vivo [7] = assay: in vivo; parameters: species or system athymic nude mice; settings: athymic nude, mouse, iv, total radioactivity
# Experimental: Mice bearing LNCap and 22Rv1 xenografts were injected via the tail vein with 50-100 μCi of ^64Cu-DOTAM-PSMA reconstituted in 150-200 μL of saline. At 1 h, 2 h, and 24 hrs. post injection, while under anesthesia blood was collected by cardiac puncture and mice were sacrificed by cervical dislocation. The heart, lung liver, stomach, pancreas, spleen fat, kidney, muscle, intestines, skin and tumor were collected. Each organ was weighed, and the tissue radioactivity was measured with an automated gamma counter (2470 Wizard2 Gamma Counter, Perkin-Elmer, Waltham, Mass.). The percentage of injected dose per gram of tissue (% ID/g) was calculated. All measurements were corrected for decay.
structure (smiles),measurement,setting,value
"NC(=O)CN1CCN(CC(N)=O)CCN(CC(=O)N[C@H](Cc2ccccc2)C(=O)N[C@H](Cc2ccccc2)C(=O)N[C@H](CCCCNC(=O)CCCCCCC(=O)NCCCC[C@H](NC(=O)N[C@@H](CCC(=O)O)C(=O)O)C(=O)O)C(=O)O)CCN(CC(N)=O)CC1 [^212Pb-DOTAM-PSMA, metal not drawn]",decrease of renal retention,LNCap xenografts [1],55%
same,uptake in bone and spleen,LNCap xenografts [1],not uptake of agent in bone and spleen
same,tissue uptake at 1 h,in vivo [2]; Tumor uptake,5.7 ± 0.9 %ID/g
same,tissue uptake at 3 h,in vivo [2]; Tumor uptake,7.2 ± 2.6 %ID/g
same,tissue uptake at 1 h,in vivo [2]; renal retention,32.2 ± 15.6 %ID/g
same,tissue uptake at 3 h,in vivo [2]; renal retention,17.7 ± 9.4 %ID/g
"NC(=O)CN1CCN(CC(N)=O)CCN(CC(=O)N[C@H](Cc2ccccc2)C(=O)N[C@H](Cc2ccccc2)C(=O)N[C@H](CCCCNC(=O)CCCCCCC(=O)NCCCC[C@H](NC(=O)N[C@@H](CCC(=O)O)C(=O)O)C(=O)O)C(=O)O)CCN(CC(N)=O)CC1 [^203Pb-DOTAM-PSMA, metal not drawn]",decrease of renal retention,LNCap xenografts [3],32%
same,"normal organs distribution, ^203Pb- versus ^212Pb-DOTAM-PSMA",LNCap xenografts [3],very similar normal organs distribution
same,tissue uptake at 1 h,in vivo [4],16.1 ± 0.8 %ID/g
same,tissue uptake at 3 h,in vivo [4],> 4.8 %ID/g
"NC(=O)CN1CCN(CC(N)=O)CCN(CC(=O)N[C@H](Cc2ccccc2)C(=O)N[C@H](Cc2ccccc2)C(=O)N[C@H](CCCCNC(=O)CCCCCCC(=O)NCCCC[C@H](NC(=O)N[C@@H](CCC(=O)O)C(=O)O)C(=O)O)C(=O)O)CCN(CC(N)=O)CC1 [^64Cu-DOTAM-PSMA, metal not drawn]","liver retention of trans-chelated Cu64, comparison of strains",[5],higher in R2G2 mice strain compared to NOG strain but it was still lower the one observed in athymic nude
same,"tumor retention, R2G2 strain versus NOG strain",[5],much more favorable in R2G2 strain than NOG strain
same,highest non-target uptake of agent (organ),[6],liver
same,retention in LNCap and 22Rv1-derived tumors (microPET),[6],confirmed retention
same,tumor retention in LNCap and 22Rv1 cancer cells (microPET),[6],confirmed its tumor retention
same,tissue uptake at 24 h,in vivo [7]; Retention in tumor,10 ± 11.1 %ID/g
same,tissue uptake at 2 h,in vivo [7]; Tumor uptake,24.8 ± 31.1 %ID/g
same,tissue uptake at 4 h,in vivo [7]; Tumor uptake,9.7 ± 10.9 %ID/g
same,tissue uptake at 2 h,in vivo [7]; off-target accumulation in kidneys,20 ± 2.9 %ID/g
same,tissue uptake at 2 h,in vivo [7]; off-target accumulation in liver,45.8 ± 6.2 %ID/g
same,tissue uptake at 4 h,in vivo [7]; renal retention,13 ± 0.6 %ID/g
same,tissue uptake at 24 h,in vivo [7]; uptake in kidneys,7.8 ± 7.9 %ID/g
same,tissue uptake at 24 h,in vivo [7]; uptake in liver,12.4 ± 11.9 %ID/g
